From PMC10341550 (2023)

Molecular target: ROCK2 (Homo sapiens, UniProt O75116)
Assay: competition fluorescence polarization

Sequence of ROCK2 (O75116 whole entry): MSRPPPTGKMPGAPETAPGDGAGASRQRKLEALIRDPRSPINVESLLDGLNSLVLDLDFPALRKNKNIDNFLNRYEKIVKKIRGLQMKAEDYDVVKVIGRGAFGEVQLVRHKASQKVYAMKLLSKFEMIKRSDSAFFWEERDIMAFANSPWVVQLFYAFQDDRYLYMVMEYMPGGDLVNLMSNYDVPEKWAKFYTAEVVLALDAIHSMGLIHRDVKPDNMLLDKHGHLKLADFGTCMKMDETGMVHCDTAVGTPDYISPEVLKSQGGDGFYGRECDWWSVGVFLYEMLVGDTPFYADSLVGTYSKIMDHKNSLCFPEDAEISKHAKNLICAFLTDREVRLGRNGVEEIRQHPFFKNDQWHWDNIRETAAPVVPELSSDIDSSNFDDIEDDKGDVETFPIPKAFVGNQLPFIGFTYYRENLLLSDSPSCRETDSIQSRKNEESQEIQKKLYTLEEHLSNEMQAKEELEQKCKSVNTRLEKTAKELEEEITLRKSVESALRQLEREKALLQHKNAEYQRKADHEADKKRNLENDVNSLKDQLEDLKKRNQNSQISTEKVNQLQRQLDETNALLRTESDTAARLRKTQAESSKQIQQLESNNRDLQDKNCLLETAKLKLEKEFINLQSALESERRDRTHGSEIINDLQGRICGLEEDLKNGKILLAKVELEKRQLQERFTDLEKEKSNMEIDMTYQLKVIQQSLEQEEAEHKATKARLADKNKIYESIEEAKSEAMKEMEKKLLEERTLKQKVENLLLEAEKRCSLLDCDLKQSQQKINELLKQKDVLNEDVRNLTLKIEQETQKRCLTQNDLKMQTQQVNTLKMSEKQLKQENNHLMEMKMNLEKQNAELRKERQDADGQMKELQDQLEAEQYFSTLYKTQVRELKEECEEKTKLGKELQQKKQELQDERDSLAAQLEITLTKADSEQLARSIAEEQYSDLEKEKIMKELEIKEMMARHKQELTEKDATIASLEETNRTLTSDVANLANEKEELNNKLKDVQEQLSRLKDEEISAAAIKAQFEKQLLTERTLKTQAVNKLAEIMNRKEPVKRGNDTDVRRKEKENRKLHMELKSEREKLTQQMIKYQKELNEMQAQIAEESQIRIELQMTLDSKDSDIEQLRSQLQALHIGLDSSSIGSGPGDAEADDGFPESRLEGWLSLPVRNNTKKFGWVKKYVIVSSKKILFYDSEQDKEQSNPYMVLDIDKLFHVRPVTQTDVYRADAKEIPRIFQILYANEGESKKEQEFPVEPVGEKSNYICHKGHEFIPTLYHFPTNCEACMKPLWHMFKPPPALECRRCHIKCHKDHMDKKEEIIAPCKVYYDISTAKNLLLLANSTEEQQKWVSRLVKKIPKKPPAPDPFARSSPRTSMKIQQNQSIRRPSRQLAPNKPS

A Kd of 3.5 nM was found for ADRGLTTRPGSGLTNIKTEEISEVKMDAEFRHDSGYEVHHQKLVFFAEDV (BACE1 C-terminal peptide present) [APP 646-695] in this work.
